The text below walks through data of patent US20120294945A1.

This experiment deals with Flt1-Fc (R&D systems, Minneapolis, Minn.) (UniProt P17948). Put plainly: competition ELISA, VEGF165-coated plate, 500 ng/mL Flt1-Fc, conjugate at rising peptide concentration. In general terms: An ELISA detects its analyte on a solid surface through an enzyme-linked reagent.

Ends that are not written are not given here. HA = hyaluronic acid (HA-TBA), bound to the peptide's terminal amine

Sequence of Flt1-Fc (R&D systems, Minneapolis, Minn.) (P17948 27-756 limits assumed): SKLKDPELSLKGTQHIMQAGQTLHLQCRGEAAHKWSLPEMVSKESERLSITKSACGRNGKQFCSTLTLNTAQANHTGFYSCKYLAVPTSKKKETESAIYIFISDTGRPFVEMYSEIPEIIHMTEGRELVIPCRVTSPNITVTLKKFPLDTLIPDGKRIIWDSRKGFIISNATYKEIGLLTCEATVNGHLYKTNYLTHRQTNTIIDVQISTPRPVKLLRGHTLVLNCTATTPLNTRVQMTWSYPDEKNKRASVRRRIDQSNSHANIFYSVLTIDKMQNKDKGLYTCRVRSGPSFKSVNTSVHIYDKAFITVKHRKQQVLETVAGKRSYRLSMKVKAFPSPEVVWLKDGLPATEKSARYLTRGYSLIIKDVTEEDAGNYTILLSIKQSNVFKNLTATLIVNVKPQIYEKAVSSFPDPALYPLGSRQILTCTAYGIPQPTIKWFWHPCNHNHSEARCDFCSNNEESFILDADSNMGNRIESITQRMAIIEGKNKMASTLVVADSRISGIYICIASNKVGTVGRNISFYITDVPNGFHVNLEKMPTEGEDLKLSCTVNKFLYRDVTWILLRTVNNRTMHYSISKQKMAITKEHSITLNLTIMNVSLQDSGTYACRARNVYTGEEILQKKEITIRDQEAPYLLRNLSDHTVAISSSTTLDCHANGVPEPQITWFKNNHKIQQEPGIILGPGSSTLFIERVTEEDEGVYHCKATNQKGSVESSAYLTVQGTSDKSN

In turn, {HA}-GGNQWFI (also: 20 peptides conjugated per HA-TBA molecule) [hyaluronic acid-peptide conjugate with a lower peptide content of Preparation Example 3 (HA-GGNQWFI)] returned an inhibition of the bonding between VEGF165 and Flt1-Fc (luminescence, positive control = 100%) of 32%.
